Laboratory results as given in US20250313635A1 (Merck Sharp & Dohme, published 2025).
Where a chain is given by its changes, count along the chain named.

B1: Ab-29 (antibody, V domains shown)
VH: ELQLQESGPGLVKPSETLSLTCTVSGGSISSNSYYWGWIRQPPGKGLEWIGSIYYSGSTYYNPSLKSRVTISVDTSKNQFSLKLSSVTAADTAVYYCARVRRVAGRGDSYYYYYGMDVWGQGTTVTVSS
VL: DIQMTQSPSSVSASVGDRVTITCRASQGISRWLAWYQQKPGKAPKLLIYAASSLQSGVPSRFSGSGSGTDFTLTISSLQPEDFATYYCQQAISHPWTFGGGTKVEIK
B2: Ab-31 (antibody, V domains shown)
VH: EVQLQESGPGLVKPSETLSLTCAVSGYSISSGYYWGWIRQPPGKGLEWIGSIYHSGNTYYNPSLKSRVTISVDTSKNQFSLKLSSVTAADTAVYYCARVPRYSRGDAYYYYGMDVWGQGTTVTVSS
VL: DIQMTQSPSTLSASVGDRVTITCRASQSIGSWLAWYQQKPGKAPKLLIYKASSLESGVPSRFSGSGSGTEFTLTISSLQPDDFATYYCQQSGPYPWTFGGGTKVEIK
B3: Ab-33 (antibody, V domains shown)
VH: EVQLVQSGAEVKKPGSSVKVSCKASGGTFSNYAISWVRQAPGQGLEWMGGIIPIFGTANYAQKFQGRVTITADESTSTAYMELSSLRSEDTAVYYCARAPRSARGDMYYYYYGMDVWGQGTTVTVSS
VL: B2 VL with S91Y, P93R
B4: Ab-32 (antibody, V domains shown)
VH: B2 VH
VL: EIVLTQSPGTLSLSPGERATLSCRASQSVRSSYLAWYQQKPGQAPRLLIYGASSRATGIPDRFSGSGSGTDFTLTISRLEPEDFAVYYCQQAGLVFTFGGGTKVEIK
B5: Ab-30 (antibody, V domains shown)
VH: B2 VH
VL: DIQMTQSPSTLSASVGDRVTITCRASQSISSWLAWYQQKPGKAPKLLIYKASSLESGVPSRFSGSGSGTEFTLTISSLQPDDFATYYCQQVKIYPPYTFGGGTKVEIK

What was measured:
[1] = molecular target: T1, recombinant mouse αvβ1 integrin extracellular domains (mouse, UniProt P43406 1-988; P09055 1-728, Biotinylated on the Avitag (tag not in the letters); interchain disulfide between the coiled-coils (not in the letters).); test: AlphaLISA blocking of mouse fibronectin binding
T1 construct: Soluble heterodimer co-expressed in Expi293 cells; also called mαvβ1
Protocol: (§1) Briefly, the testing antibody (8 μL) was added as a 4×(of Final testing concentration) solution in the HEPES buffer described previously into a 384w AlphaPlate™ (Perkin Elmer #6005350). Then the integrin and ligand were added sequentially as 8×(4 μL each). Plates were sealed and incubated at room temperature for two hours. Then 4×acceptor bead solution ([…]) was added, and the plates were resealed and incubated at room temperature (RT) for one hour. Finally, 4×([…]) donor beads solution was added in a darkened room and incubated for 45 minutes at room temperature. Plates were read on the Envision (Perkin Elmer) in AlphaScreen™ mode within three hours of donor bead addition.

[2] = molecular target: T2, recombinant mouse αvβ6 integrin extracellular domains (mouse, UniProt P43406 1-988; Q9Z0T9 1-706, Biotinylated on the Avitag (tag not in the letters); interchain disulfide between the coiled-coils (not in the letters).); test: AlphaLISA blocking of mouse LAP-6His binding
T2 construct: Soluble heterodimer co-expressed in Expi293 cells; also called mαvβ6
Protocol: as §1

[3] = molecular target: T3, recombinant mouse αvβ3 integrin extracellular domains (mouse, UniProt P43406 1-988; O54890 1-717, Biotinylated on the Avitag (tag not in the letters); interchain disulfide between the coiled-coils (not in the letters).); test: AlphaLISA blocking of mouse vitronectin binding
T3 construct: Soluble heterodimer co-expressed in Expi293 cells; also called mαvβ3
Protocol: as §1

[4] = molecular target: T4, recombinant mouse αvβ5 integrin extracellular domains (mouse, UniProt P43406 1-988; O70309 1-719, Biotinylated on the Avitag (tag not in the letters); interchain disulfide between the coiled-coils (not in the letters).); test: AlphaLISA blocking of mouse vitronectin binding
T4 construct: Soluble heterodimer co-expressed in Expi293 cells; also called mαvβ5
Protocol: as §1

[5] = molecular target: T5, recombinant human αvβ3 integrin extracellular domains (human, UniProt P06756 1-992; P05106 1-718, Secreted glycoprotein heterodimer. It is biotinylated on the omitted Avitag, and an interchain disulfide sits in the omitted coiled-coils.); test: AlphaLISA blocking of human vitronectin-GST binding
T5 construct: Soluble heterodimer co-expressed in Expi293 cells; also called hαvβ3; not shown: Alpha chain: acidic coiled-coil with cysteine and GG-Avitag; Beta chain: basic coiled-coil with cysteine and GG-Avitag

[6] = molecular target: T6, recombinant human αvβ5 integrin extracellular domains (human, UniProt P06756 1-992; P18084 1-719, Secreted glycoprotein heterodimer. It is biotinylated on the omitted Avitag, and an interchain disulfide sits in the omitted coiled-coils.); test: as above
T6 construct: Soluble heterodimer co-expressed in Expi293 cells; also called hαvβ5; not shown: Alpha chain: acidic coiled-coil with cysteine and GG-Avitag; Beta chain: basic coiled-coil with cysteine and GG-Avitag

[7] = molecular target: T1, recombinant mouse αvβ1 integrin …; test: ForteBio Octet Red (BLI); upper end tied to Ab-31 and mαvβ1 by Table 13
[8] = molecular target: human αvβ8 integrin on CHOK1 stable cells (human, UniProt P06756 31-1048; P26012 43-769); test: cell-based or functional assay
[9] = molecular target: human αvβ6 integrin on CHOK1 stable cells (human, UniProt P06756 31-1048; P18564 22-788); test: cell-based or functional assay
[10] = molecular target: mouse αvβ3 integrin on CHOK1 stable cells (mouse, UniProt P43406 31-1044; O54890 26-787); test: cell-based or functional assay
[11] = molecular target: mouse αvβ6 integrin on CHOK1 stable cells (mouse, UniProt P43406 31-1044; Q9Z0T9 22-787); test: cell-based or functional assay
[12] = molecular target: mouse αvβ1 integrin on CHOK1 stable cells (mouse, UniProt P43406 31-1044; P09055 21-798); test: cell-based or functional assay
[13] = molecular target: human αvβ1 integrin on CHOK1 stable cells (human, UniProt P06756 31-1048; P05556 21-798); test: cell-based or functional assay
[14] = molecular target: mouse αvβ8 integrin on CHOK1 stable cells (mouse, UniProt P43406 31-1044; Q0VBD0 22-767); test: cell-based or functional assay
[15] = molecular target: mouse αvβ5 integrin on CHOK1 stable cells (mouse, UniProt P43406 31-1044; O70309 24-798); test: cell-based or functional assay
[16] = molecular target: T2, recombinant mouse αvβ6 integrin …; test: ForteBio Octet Red (BLI); lower end tied to Ab-33 and mαvβ6 by Table 13

T2 sequence (P43406 31-988 limits assumed, form in doubt, chain 1 of 2): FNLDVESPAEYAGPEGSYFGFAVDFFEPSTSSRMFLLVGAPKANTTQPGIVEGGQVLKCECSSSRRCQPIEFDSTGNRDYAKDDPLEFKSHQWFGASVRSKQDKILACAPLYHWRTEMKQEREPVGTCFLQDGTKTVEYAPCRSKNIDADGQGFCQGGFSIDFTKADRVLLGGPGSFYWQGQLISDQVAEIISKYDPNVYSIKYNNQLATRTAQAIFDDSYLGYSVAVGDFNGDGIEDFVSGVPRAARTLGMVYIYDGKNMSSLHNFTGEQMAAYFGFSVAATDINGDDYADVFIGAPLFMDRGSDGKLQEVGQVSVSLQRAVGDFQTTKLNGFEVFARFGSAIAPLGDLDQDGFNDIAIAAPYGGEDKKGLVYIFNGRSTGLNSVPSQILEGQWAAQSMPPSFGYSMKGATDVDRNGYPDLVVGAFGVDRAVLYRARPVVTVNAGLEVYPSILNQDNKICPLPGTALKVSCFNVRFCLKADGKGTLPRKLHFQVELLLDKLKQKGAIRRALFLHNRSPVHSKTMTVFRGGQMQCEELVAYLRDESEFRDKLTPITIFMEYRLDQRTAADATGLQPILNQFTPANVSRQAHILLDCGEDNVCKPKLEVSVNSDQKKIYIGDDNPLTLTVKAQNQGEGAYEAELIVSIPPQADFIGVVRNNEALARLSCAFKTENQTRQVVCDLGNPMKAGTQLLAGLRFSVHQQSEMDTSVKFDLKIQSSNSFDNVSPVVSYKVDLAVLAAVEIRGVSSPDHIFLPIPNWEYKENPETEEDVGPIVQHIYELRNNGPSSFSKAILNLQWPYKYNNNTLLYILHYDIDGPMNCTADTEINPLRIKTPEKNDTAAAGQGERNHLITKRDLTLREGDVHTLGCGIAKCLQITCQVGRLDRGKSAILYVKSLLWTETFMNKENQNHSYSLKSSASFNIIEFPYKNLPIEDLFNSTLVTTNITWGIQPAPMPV
T2 sequence (Q9Z0T9 22-706 limits assumed, form in doubt, chain 2 of 2): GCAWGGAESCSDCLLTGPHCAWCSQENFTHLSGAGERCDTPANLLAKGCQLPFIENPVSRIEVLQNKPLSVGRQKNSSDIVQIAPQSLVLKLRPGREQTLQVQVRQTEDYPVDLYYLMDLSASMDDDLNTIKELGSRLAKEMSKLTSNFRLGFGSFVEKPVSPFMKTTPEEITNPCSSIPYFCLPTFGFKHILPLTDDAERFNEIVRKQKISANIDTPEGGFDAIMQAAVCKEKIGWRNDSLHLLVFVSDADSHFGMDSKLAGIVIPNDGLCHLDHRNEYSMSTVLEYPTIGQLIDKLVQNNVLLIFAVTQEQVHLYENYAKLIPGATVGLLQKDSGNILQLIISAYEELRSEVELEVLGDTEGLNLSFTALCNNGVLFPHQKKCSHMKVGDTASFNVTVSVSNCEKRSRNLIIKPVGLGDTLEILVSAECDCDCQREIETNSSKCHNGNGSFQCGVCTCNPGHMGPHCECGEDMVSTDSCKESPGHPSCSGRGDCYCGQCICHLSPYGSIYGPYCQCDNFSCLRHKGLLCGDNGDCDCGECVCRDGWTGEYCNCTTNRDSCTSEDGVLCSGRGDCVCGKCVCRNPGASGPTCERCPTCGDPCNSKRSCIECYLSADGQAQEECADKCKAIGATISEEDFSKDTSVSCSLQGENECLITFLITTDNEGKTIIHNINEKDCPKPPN
T3 sequence (P43406 31-988 limits assumed, form in doubt, chain 1 of 2): as the sequence (P43406 31-988 limits assumed, form in doubt, chain 1 of 2) above
T3 sequence (O54890 26-717 limits assumed, form in doubt, chain 2 of 2): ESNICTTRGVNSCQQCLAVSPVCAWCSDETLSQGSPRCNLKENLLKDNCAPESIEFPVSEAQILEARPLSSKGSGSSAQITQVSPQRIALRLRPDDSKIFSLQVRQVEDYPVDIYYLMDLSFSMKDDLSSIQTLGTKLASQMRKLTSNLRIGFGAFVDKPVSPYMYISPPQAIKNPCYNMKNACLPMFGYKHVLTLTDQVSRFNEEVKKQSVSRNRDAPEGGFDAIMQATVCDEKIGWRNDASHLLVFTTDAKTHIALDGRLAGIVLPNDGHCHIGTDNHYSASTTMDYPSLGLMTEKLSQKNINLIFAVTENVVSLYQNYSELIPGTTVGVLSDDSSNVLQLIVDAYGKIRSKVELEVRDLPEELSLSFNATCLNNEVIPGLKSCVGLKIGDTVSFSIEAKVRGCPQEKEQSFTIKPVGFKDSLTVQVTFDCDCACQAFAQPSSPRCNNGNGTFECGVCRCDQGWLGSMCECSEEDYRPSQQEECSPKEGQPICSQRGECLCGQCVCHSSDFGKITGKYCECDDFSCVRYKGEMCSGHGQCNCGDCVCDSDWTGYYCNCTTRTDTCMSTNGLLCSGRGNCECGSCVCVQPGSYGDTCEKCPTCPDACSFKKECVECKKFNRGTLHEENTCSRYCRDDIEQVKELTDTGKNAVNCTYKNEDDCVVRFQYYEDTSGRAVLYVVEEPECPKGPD
T1 sequence (P43406 31-988 limits assumed, form in doubt, chain 1 of 2): as the sequence (P43406 31-988 limits assumed, form in doubt, chain 1 of 2) above
T1 sequence (P09055 21-728 limits assumed, form in doubt, chain 2 of 2): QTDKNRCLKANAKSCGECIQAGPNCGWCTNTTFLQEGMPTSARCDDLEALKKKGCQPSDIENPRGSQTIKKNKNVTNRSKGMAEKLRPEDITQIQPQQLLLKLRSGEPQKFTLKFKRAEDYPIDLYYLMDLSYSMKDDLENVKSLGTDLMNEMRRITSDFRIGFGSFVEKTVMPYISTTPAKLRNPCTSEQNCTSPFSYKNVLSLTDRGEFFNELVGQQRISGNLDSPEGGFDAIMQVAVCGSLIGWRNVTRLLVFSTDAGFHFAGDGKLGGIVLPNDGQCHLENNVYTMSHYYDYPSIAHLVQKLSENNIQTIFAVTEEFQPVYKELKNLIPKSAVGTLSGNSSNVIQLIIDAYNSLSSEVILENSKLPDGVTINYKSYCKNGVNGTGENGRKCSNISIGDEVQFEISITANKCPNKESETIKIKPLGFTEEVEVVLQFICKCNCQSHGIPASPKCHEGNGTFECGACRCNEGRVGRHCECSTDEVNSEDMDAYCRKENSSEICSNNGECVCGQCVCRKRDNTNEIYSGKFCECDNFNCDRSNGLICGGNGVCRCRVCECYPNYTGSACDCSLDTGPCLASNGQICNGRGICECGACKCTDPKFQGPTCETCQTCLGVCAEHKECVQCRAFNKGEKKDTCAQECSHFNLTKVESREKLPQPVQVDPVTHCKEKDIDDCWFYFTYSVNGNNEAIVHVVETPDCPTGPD
Chain of mouse αvβ1 integrin on CHOK1 stable cells (P43406 31-1044, chain 1 of 2): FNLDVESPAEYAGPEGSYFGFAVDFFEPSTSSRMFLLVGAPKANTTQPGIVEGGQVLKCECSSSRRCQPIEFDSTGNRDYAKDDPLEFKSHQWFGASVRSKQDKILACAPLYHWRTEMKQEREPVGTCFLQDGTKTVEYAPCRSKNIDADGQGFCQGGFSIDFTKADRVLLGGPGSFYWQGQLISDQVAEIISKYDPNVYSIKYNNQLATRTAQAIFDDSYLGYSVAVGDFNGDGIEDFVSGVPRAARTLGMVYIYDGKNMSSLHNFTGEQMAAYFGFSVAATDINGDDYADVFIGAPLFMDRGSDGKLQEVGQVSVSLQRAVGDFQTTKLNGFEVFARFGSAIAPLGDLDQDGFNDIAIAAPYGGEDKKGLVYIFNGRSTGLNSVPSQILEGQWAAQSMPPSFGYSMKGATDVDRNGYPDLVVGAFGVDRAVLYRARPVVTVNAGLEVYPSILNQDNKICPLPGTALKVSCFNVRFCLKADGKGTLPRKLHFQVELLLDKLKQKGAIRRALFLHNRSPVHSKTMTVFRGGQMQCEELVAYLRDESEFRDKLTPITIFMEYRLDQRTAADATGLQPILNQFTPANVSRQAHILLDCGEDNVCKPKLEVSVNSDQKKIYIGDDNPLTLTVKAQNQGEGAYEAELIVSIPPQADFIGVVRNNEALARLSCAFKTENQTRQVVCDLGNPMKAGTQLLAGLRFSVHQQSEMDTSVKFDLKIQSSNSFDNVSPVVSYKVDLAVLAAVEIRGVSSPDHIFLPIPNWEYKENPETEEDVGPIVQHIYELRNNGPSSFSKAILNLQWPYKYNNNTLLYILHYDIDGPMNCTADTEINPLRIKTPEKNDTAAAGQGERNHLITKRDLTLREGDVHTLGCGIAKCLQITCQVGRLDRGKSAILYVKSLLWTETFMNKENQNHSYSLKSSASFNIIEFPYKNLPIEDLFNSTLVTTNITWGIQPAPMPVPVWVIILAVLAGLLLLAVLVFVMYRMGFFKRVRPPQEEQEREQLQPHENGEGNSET
Chain of mouse αvβ1 integrin on CHOK1 stable cells (P09055 21-798, chain 2 of 2): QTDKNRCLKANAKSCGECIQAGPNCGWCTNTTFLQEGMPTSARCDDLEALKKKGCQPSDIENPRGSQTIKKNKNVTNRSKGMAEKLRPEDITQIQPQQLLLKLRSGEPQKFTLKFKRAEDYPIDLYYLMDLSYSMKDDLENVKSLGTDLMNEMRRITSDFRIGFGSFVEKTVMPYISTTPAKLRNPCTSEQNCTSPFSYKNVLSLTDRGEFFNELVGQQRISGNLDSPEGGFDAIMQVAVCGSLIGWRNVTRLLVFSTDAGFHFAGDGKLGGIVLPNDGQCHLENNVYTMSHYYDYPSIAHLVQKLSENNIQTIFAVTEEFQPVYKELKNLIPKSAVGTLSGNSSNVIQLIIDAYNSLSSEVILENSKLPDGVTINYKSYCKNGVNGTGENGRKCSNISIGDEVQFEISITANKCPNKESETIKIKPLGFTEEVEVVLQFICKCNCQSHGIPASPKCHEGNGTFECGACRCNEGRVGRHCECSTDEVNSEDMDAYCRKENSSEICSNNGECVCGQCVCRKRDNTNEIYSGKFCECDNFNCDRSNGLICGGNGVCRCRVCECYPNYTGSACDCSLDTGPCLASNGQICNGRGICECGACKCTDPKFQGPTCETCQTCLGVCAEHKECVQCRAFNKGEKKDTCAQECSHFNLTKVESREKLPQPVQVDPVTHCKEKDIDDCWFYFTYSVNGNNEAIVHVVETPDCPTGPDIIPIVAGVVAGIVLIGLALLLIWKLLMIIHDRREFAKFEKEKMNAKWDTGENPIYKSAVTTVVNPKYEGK

Row | Binder | IC50 [1] [nM] | IC50 [2] [nM] | IC50 [3] [nM] | IC50 [4] [nM] | IC50 [5] [nM] | IC50 [6] [nM] | Kd [7] [nM] | IC50 of latent TGFβ activation (PAI-1 luciferase, TMLC and CHOK1-integrin co-culture) [8] [nM] | IC50 of latent TGFβ activation (PAI-1 luciferase, TMLC and CHOK1-integrin co-culture) [9] [nM] | IC50 of inhibition of adhesion of CHOK1-mαvβ3 cells to vitronectin matrix [10] [nM] | IC50 of latent TGFβ activation (PAI-1 luciferase, TMLC and CHOK1-integrin co-culture) [11] [nM] | IC50 of inhibition of adhesion of CHOK1-α5KO-mαvβ1 cells to fibronectin matrix [12] [nM] | IC50 of latent TGFβ activation (PAI-1 luciferase, TMLC and CHOK1-integrin co-culture) [12] [nM] | IC50 of latent TGFβ activation (PAI-1 luciferase, TMLC and CHOK1-integrin co-culture) [13] [nM] | IC50 of latent TGFβ activation (PAI-1 luciferase, TMLC and CHOK1-integrin co-culture) [14] [nM] | IC50 of inhibition of adhesion of CHOK1-mαvβ5 cells to vitronectin matrix [15] [nM] | Kd [16] [nM]
1 | B1 | 3.4 | 26.3 | 3.4 | 17.7 | 1.16 | 14.8 | – | – | – | – | – | – | – | – | – | – | –
2 | B2 | 6.6 | 17.7 | 3.2 | – | 0.94 | 31.7 | 2 to 48 | 3.9 | 19.1 | 1 | 3.1 | 1.5 | 7.5 | 6.1 | 13.5 | 5.6 | –
3 | B3 | 4.5 | 6.6 | 9.2 | 96.3 | 1.28 | 22.3 | – | – | – | – | – | – | – | – | – | – | 2 to 48
4 | B4 | 6.7 | 17.1 | 4.3 | – | 1.03 | 26 | – | – | – | – | – | – | – | – | – | – | –
5 | B5 | 6.8 | 23.2 | 4.2 | – | 1.24 | 53.5 | – | – | – | – | – | – | – | – | – | – | –
